The labels stand for the following.
T1: angiotensin I converting enzyme (ACE) (UniProt P12821)
T1 chain: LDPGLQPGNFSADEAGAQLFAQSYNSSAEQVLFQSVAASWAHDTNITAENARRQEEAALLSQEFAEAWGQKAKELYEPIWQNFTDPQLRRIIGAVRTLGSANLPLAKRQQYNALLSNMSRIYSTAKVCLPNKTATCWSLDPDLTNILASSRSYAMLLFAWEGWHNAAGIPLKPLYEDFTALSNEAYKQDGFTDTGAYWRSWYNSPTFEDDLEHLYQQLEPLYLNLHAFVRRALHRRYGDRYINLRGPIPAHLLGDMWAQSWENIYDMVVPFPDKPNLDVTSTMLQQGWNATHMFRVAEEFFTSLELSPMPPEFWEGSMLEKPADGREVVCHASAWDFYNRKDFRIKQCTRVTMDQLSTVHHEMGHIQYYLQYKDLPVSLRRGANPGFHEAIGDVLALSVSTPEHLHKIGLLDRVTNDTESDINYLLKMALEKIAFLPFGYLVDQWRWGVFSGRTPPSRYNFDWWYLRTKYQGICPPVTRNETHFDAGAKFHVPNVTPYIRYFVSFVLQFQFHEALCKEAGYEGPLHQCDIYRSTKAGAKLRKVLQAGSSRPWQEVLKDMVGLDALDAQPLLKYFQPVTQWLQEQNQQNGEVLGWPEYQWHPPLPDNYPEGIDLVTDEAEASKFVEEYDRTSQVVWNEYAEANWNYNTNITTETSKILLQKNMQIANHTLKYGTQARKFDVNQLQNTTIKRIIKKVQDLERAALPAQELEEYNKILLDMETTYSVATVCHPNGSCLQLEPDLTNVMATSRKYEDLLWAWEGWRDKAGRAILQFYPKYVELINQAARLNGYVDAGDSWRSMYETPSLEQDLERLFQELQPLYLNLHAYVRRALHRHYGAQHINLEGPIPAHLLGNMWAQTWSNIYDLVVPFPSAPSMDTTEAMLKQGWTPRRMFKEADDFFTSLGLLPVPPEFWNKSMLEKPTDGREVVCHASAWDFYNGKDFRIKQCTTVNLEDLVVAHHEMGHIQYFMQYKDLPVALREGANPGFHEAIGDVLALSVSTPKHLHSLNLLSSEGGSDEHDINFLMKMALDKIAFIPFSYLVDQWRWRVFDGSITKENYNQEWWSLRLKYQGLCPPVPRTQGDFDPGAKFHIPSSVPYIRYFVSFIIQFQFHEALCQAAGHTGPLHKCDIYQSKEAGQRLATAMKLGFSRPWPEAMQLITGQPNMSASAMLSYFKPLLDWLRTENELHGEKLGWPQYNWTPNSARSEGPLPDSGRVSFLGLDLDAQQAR

The values that follow come from patent US20060234942 (published 2006).

The experiment deals with T1, angiotensin I converting enzyme (ACE). Put plainly: other, ACE inhibition.
For the molecule ALNEINQFYQK [ALNEINQFYQK (CNαS2-(f81-91))], the IC50 came to 26.4 µM.
With FPQYLQY [FPQYLQY (CNαS2-(f92-98))] the figure was 14 µM; with FALPQY [FALPQY (CNαS2-(f174-179))], 4.3 µM; with ALNEINQFY [ALNEINQFY (CNαS2-(f81-89))], 219 µM.
Take TVY [TVY (CNαS2-(f182-184))]: the IC50 was 15 µM. Compared with the last molecule, the IC50 is about 15-fold lower.
Then NMAINPSK [NMAINPSK (CNαS2-(f25-32))], with 60 µM.
Then FALPQYLK [FALPQYLK (CNαS2-(f174-181))], with 4.3 µM.
